Results from patent US20210292393A1.
Changes are numbered by the printed parent chain. Where “and” joins values, the source holds several entries; their conditions need not be identical. Equal entries are not always repeated.

Legend:
Settings in all cases: remark: other sources report otherwise
[1] = biological target: SARS-CoV-2 full length spike protein, V483A mutant, expressed on the surface of CHO cells (SARS-CoV-2), P0DTC2
[2] = biological target: SARS-CoV-2 full length spike protein, V367F mutant, expressed on CHO cells (SARS-CoV-2), P0DTC2
[3] = biological target: SARS-CoV-2 full length spike protein, V483A mutant, expressed on CHO cells (SARS-CoV-2), P0DTC2
[4] = biological target: SARS-CoV-2 full length spike protein, D614G mutant, expressed on CHO cells (SARS-CoV-2), P0DTC2
[5] = biological target: SARS-CoV-2 full length spike protein, V483A mutant (SARS-CoV-2), P0DTC2
[6] = biological target: SARS-CoV-2 full length spike protein, V367F mutant (SARS-CoV-2), P0DTC2
[7] = biological target: SARS-CoV-2 full length spike protein, D614G mutant (SARS-CoV-2), P0DTC2

B1: antibody 362 (antibody, V domains shown)
VH: QVQLVESGGGVVQPGRSLRLSCAASGFNLSNYAMHWVRQASGKGLEWVSLISYDGSVKYYTDSVKGRFTVSGDNSKNTLFLQMNSLRPDDSALYYCVRGGVSGPNSFDMWGQGTTVTVSS
VL: DVVMTQSPLSLPVTLGQPATISCRSSQSLVYSDGNTYVNWFQQRPGQSPRRLIYQVSIRASGVPDRFSGSGSGTDFALKISRVEAEDVGVYYCMQGTHWPVTFGQGTKVEIK
Binder B1 has a median fluorescence intensity, fold over isotype control (fold over isotype) [1] of 10.3.

B2: antibody 325 (antibody, V domains shown)
VH: QVQLQESGPGLVKPSQTLSLTCTVSGGSISGGGYYWSWIRQHPGKGLEWIGYIYYSGSTYYNPSLQSRVTISVDTSKNQFSLKLSSVTAADTAVYYCARVGTSSVWYFDYWGQGTLVTVSS
VL: QSALTQPRSVSGSPGQSVTISCTGTSSDVGGYNYVSWYQQHPGKAPKLMIYDVTKRPSGVPDRFSGSKSGNTASLTISGLQAEDEADYYCSSYAGSWVFGGGTKLTVL
B2 gave a median fluorescence intensity, fold over isotype control (fold over isotype) [1] of 1.17.

B3: antibody 499 (antibody, V domains shown)
VH: EVQLVESGGGLVKPGGSLRLSCAASGFTFSSYSMNWVRQAPGKGLEWVSSISSSSSYIYYADSVKGRFTISRDNAKNSLYLQMNSLRAEDTAVYYCARAPAGIVVGPDYWGQGTLVTVSS
VL: NFMLTQPHSVSESPGKTVTISCTGSSGSIASNYVQWYQQRPGSAPTTVIFEDNQRPSGVPDRFSGSIDSSSNSASLTISGLKTEDEADYYCQSYHSSNPHVVFGGGTKLTVL
With B3 the median fluorescence intensity, fold over isotype control (fold over isotype) [2] was 1.18, the median fluorescence intensity, fold over isotype control (fold over isotype) [3] was 4.39 and 2.6 and the median fluorescence intensity, fold over isotype control (fold over isotype) [4] was 4.3.

B4: antibody 269 (antibody, V domains shown)
VH: QLQLQESGPGLVKPSETLSLTCTVSGGSISSSSYYWGWIRQPPGKGLEWIGNIYYSGSTYYNPSLKSRVTISVDTSKNQFSLKLSSVTAADTAVYYCAGEELDIVATIYSSRYYYYGMDVWGQGTTVTVSS
VL: QSALTQPASVSGSPGQSITISCTGTSSDVGGYNYVSWYQQHPGKAPKLMIYEVSNRPSGVSNRFSGSKSGNTASLTISGLQAEDEADYYCSSYTSTSTLVFGGGTKLTVL
For B4, the median fluorescence intensity, fold over isotype control (fold over isotype) [5] was 22.8 and 11.6 and the median fluorescence intensity, fold over isotype control (fold over isotype) [6] was 25.4.

B5: antibody 279 (antibody, V domains shown)
VH: EVQLLESGGGLVQPGGSLRLSCAASGFTFSSYAMSWVRQAPGKGLEWVSTISGSGGNTYYADSVKGRFTISRDNSKNTLYLQMNSLRAEDTAVYYCAKDLFQGLYYGSGEFDYWGQGTLVTVSS
VL: B4 VL with G31A, E52G, T96S, L99R, G103T, L107V
With B5 the median fluorescence intensity, fold over isotype control (fold over isotype) [5] was 11.8 and 8.2 and the median fluorescence intensity, fold over isotype control (fold over isotype) [6] was 13.4.

B6: antibody 315 (antibody, V domains shown)
VH: QVQLVQSGSELKKPGASVKLSCQASGYSFTNHAMNWVRQAPGQGLEWMGWINTNTGNPTYAQGFTGRFVFSLDTSVSTTYLHISSLKAEDTAVYYCARASARPGVATNLDFWGQGTLVVVSS
VL: DIQMTQSPSSLSASVGDRVTITCRASQNIDNYLNWYQQKPGKAPKLLIYAASRLHSGVPSRFSGSGSGTDFTLIISSLQPEDLATYYCQQSYSNPLTFGPGTKVDIR
With B6 the median fluorescence intensity, fold over isotype control (fold over isotype) [1] was 8.39.

B7: antibody 322 (antibody, V domains shown)
VH: EVQLVESGGGLVQPGGSLRLSCAASGFTFSSYWMSWVRQAPGKGLEWVANIKQDGSEKYYVDSVKGRFTISRDNAKNSLYLQMNSLRAEDTAVYYCARDEDVAAALDYWGQGTLVTVSS
VL: SYVLTQPPSVSVAPGKTARITCGGNNIGSKSVHWYQQKPGQAPVLVIYYDSDRPSGIPERFSGSNSGNTATLTISRVEAGDEADYYCQVWDSSSDHPERVFGGGTKLTVL
With B7 the median fluorescence intensity, fold over isotype control (fold over isotype) [1] was 4.95.

B8: antibody 521 (antibody, V domains shown)
VH: QVQLVESGGGVVQPGRSLRLSCAASGFTFSSYGMHWVRQAPGKGLEWVAVIWYDGSNKYYADSVKGRFTISRDNSKNTLYLQMNSLRAEDTAVYYCAREGNDYGDYGEWELLGYFDYWGQGTLVTVSS
VL: SYELTQPPSVSVSPGQTARITCSGDALPKKYAYWYQQKSGQAPVLVIYEDSKRPSGIPERFSGSSSGTMATLTISGAQVEDEADYYCYSTDSSGNHRRVFGGGTKLTVL
With B8 the median fold over isotype (fold over isotype) [5] was 2.72 and 5.78, the median fold over isotype (fold over isotype) [7] was 2.68 and the median fold over isotype (fold over isotype) [6] was 1.68.

B9: antibody 495 (antibody, V domains shown)
VH: QITLKESGPTLVKPTQTLTLTCTFSGFSLSTSGVGVGWIRQPPGKALEWLALIYWDDDKRYSPSLKSRLTITKDTSKNQVVLIMTNMDPVDTATYYCAHRDSSSWFDLDAFDIWGQGTMVIVSS
VL: QSVLTQPPSVSEAPRQRVTISCSGSSSNIGNNAVNWYQQLPGKAPKLLIYYDDLLPSGVSDRFSGSKSGTSASLAISGLQSEDEADYYCAAWDDRLNGPVFGGGTKLTVL
In the case of B9, the median fluorescence intensity, fold over isotype control (fold over isotype) [2] is reported as 3.82, the median fluorescence intensity, fold over isotype control (fold over isotype) [3] is reported as 3.47 and 1.65 and the median fluorescence intensity, fold over isotype control (fold over isotype) [4] is reported as 1.43.
